In test [1] the target is T1, human 4-1BB (human, UniProt Q07011 24-255).
T1 construct: whole, on cells; also called hu4-1BB; CD137
As to the kind of experiment: flow cytometry, CHO-K1 cells overexpressing human 4-1BB.

The target in test [2] is T2, human CEACAM5 protein (Sino-11077-H08H-100UG) (human, UniProt P06731 35-685).
T2 construct: Bought protein; also called soluble recombinant CEACAM5
T2 sequence (looked up): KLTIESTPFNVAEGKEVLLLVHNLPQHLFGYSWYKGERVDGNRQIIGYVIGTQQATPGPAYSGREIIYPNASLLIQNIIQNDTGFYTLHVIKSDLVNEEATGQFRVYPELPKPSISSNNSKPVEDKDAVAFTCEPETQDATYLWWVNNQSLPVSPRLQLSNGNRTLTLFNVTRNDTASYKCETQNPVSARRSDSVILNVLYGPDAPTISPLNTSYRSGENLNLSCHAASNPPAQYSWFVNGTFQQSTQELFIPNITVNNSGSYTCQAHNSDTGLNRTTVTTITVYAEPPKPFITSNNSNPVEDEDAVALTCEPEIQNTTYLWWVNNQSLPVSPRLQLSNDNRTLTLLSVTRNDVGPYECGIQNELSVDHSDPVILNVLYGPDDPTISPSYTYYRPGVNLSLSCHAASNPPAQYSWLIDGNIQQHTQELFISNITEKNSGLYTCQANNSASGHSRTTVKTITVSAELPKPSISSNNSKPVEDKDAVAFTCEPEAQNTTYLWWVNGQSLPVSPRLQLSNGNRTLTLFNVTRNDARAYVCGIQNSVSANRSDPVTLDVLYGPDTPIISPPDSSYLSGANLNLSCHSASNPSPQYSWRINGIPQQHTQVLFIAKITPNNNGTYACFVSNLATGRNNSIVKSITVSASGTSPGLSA
As to the kind of experiment: ELISA, human CEACAM5 protein coated at 2 ug/mL. For orientation: ELISA stands for enzyme-linked immunosorbent assay.

Consider 2 molecules from patent publication US20250206834A1 (LANOVA MEDICINES, published 2025).

T1 sequence (Q07011 24-255): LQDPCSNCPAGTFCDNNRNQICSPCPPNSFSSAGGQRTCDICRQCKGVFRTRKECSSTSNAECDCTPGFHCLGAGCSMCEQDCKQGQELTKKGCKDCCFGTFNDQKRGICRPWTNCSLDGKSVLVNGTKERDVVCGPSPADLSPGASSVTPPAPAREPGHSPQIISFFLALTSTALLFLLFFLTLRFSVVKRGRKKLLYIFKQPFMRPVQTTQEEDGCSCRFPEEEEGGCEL

B1: IMMU130-263-1-3 (bispecific antibody)
heavy (part 1 of 2): EVQLVESGGGVVQPGRSLRLSCSASGFDFTTYWMSWVRQAPGKGLEWIGEIHPDSSTINYAPSLKDRFTISRDNAKNTLFLQMDSLRPEDTGVYFCASLYFGFPWFAYWGQGTPVTVSS
heavy (part 2 of 2): GGGGSGGGGSGGGGSGGGGSEVQLLESGGGLVQPGGSLRLSCAASGFTFSSSAMSWARQTPGKGFEWVSGIYSGGSTYYTESVKDRFTISRDNSKNTVYLQMNSLKPEDTAVYYCATWGTLRFGVWAEYDHWGQGTQVTVSS
light: DIQLTQSPSSLSASVGDRVTITCKASQDVGTSVAWYQQKPGKAPKLLIYWTSTRHTGVPSRFSGSGSGTDFTFTISSLQPEDIATYYCQQYSLYRSFGQGTKVEIK
notes: also called parental bispecific antibody; parental antibody; not shown: IgG1 heavy chain constant region (full IgG part, Fc of IgG1 backbone with N297A mutation); light chain constant region is not described
With B1, the binding result in test [1] is on record as “binds”.

B2: Labetuzumab (antibody, V domains shown)
VH: B1 heavy (part 1 of 2)
VL: B1 light
notes: also called Immu130; parental CEACAM5 antibody
B2: in test [2], the binding result was “binds”.
